We go through three molecules from publication PMC9908967 (Nature Communications, 2023).

The target of experiment [1] is α-elapitoxin (Dendroaspis polylepis, UniProt P01396). Put plainly: SPR; BIAcore T100; […]; 10 mM HEPES, 150 mM NaCl, 3 mM EDTA, 0.05% P20, pH 7.4; 40 µL/min; 1:1 Langmuir model, global fit. The settings on record: both partners purified.
Experiment [2] addresses α-cobratoxin (Naja kaouthia (monocled cobra), UniProt P01391). The description is as above. The note with it: both partners purified.
Experiment [3] concerns the target T1, α-bungarotoxin (Bungarus multicinctus, UniProt P60615).
T1 construct: source: bought: Latoxan SAS (L8115)
Put plainly: SPR. The note with it: both partners purified.

For experiment [4], the target named is T2, long neurotoxin 2 from O. hannah (Ophiophagus hannah, UniProt A8N285).
T2 construct: source: in SEC fractions of O. hannah whole venom (Latoxan L1357)
Put plainly: native MS. The note with it: one partner purified.

Experiment [5] has as its target long neurotoxin 4 from N. naja (Naja naja, UniProt P25672). Nature of the experiment: native MS. The note with it: one partner purified.
Experiment [6] concerns the target T3, long neurotoxin 2 from N. melanoleuca (Naja melanoleuca, UniProt P01388).
T3 construct: source: in SEC fractions of N. melanoleuca whole venom (Latoxan L1318)
Nature of the experiment: native MS. The settings on record: one partner purified.

In experiment [7] the target is T4, long neurotoxin from N. melanoleuca (Naja melanoleuca, UniProt P0DQQ2).
T4 construct: source: in SEC fractions of N. melanoleuca whole venom (Latoxan L1318)
Nature of the experiment: native MS. The settings on record: one partner purified.

B1: 2554_01_D11 Fab (Fab, V domains shown)
VH: QVQLVQSGAEVKKPGSSVKVSCKASGGTFSSYAISWVRQAPGQGLEWMGGIIPIFGTANYAQKFQGRVTITADESTSTAYMELRSLRSDDTAVYYCARDNLGYCSGGSCYSDYYYYYMDVWGQGTLVTVSS
VL: NFMLTQPRSVSESPGKTVTISCTRSSGSIGSDYVHWYQQRPGSSPTTVIYEDNQRPSGVPDRFSGSIDSSSNSASLTISGLKTEDEADYYCQSYDRSNHEVVFGGGTKLTVL
notes: source: Expi293 cells, transient, purified (anti-CH1 resin)
As for B1, in experiment [1], the equilibrium dissociation constant (Kd) amounted to 1.69 nM and the dissociation rate constant (koff) was 0.000177 s⁻¹. Also, in experiment [2], the affinity, expressed as Kd, was 1.78 nM and the koff was found to be 0.000229 s⁻¹. In addition, in experiment [3], the binding result was “binds”.

B2: 2554_01_D11 IgG (antibody, V domains shown)
VH: QVQLVQSGAEVKKPGSSVKVSCKASGGTFSSYAISWVRQAPGQGLEWMGGIIPIFGTANYAQKFQGRVTITADESTSTAYMELRSLRSDDTAVYYCARDNLGYCSGGSCYSDYYYYYMDVWGQGTLVTVSS
VL: NFMLTQPRSVSESPGKTVTISCTRSSGSIGSDYVHWYQQRPGSSPTTVIYEDNQRPSGVPDRFSGSIDSSSNSASLTISGLKTEDEADYYCQSYDRSNHEVVFGGGTKLTVL
notes: also called IgG 2554_01_D11; copies: 2 + 2
With B2, the binding result in experiment [4], in experiment [5], in experiment [6] and in experiment [7] was “binds” throughout.

B3: 2555_01_A01 Fab (Fab, V domains shown)
VH: QVQLVQSGAEVKKPGSSVKVSCKASGGTFSSYAISWVRQAPGQGLEWMGGIIPIFGTANYAQKFQGRVTITADESTSTAYMELRSLRSDDTAVYYCARDNLGYCSGGSCYSDYYYYYMDVWGQGTLVTVSS
VL: SYELTQPPSVSVAPGRTATITCEGDNIGQQIVHWYQQKPGQAPVAVISSDSDRPSGIPERFSGSNSGNTATLTISRVEAGDEADYYCQVWDSGSDHVVFGGGTKVTVL
notes: as for B1
For B3, the Kd in experiment [1] is 1.81 nM; in experiment [2], 8.41 nM. The results for the off-rate constant (koff) in experiment [1] and in experiment [2] were 0.000181 s⁻¹ and 0.0017 s⁻¹, respectively.
